Columns and labels:
[1] = molecular target: T1, murine B7-DC (murine, UniProt Q9WUL5 20-247); experiment: cell-based or functional assay
T1 sequence (looked up): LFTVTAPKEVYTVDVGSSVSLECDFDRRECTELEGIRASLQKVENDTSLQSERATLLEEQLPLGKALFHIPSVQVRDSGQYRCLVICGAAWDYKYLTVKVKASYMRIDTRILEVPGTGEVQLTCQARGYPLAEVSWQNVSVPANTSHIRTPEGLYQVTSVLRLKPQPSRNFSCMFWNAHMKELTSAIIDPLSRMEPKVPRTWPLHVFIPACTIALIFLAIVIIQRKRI

[2] = molecular target: T2, human B7-DC (human, UniProt Q9BQ51 20-273); experiment: flow cytometry on Ltk cells transiently transfected with human B7-DC
T2 construct: whole, on cells; also called hB7.DC; human B7-DC orthologue
T2 sequence (looked up): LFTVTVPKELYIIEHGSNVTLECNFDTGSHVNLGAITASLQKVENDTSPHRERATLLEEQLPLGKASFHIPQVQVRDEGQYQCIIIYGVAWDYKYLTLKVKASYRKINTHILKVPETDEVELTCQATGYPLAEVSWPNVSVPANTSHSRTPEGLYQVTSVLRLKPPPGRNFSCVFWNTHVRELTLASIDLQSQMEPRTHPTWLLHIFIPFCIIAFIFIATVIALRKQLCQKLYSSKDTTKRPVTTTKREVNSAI
Excerpt: Furthermore, the level of sHIgM12 binding to L-cells was positively correlated with the amount of B7-DC plasmid used in the transfection.

GFP+, CD11c+ DC recovered from draining lymph nodes after adoptive transfer [1]: 5 fold
IL-12 p70 release by DC (ELISA), against LPS [1]: ~3 fold
ability of lymph node DC to induce an antigen-specific T cell response [1]: 10 fold
binding result [2]: binds
B1: sHIgM12 (human monoclonal IgM antibody, pentameric) (antibody)
heavy: QVQLQESGPGLLKPSETLSLTCTVSGGSVSLYYWSWIRQSPGKEPEWIGYIYSSGSTDYNPSLRSRVTISLDTSNNRFSLNLRSVTAADTAVYWCARSASIRGWFDPWGQGTLVTVSSGSASAPTLFPLVSCENSPSDTSSVAVGCLAQDFLPDSITFSWKYKNNSDISSTRGFPSVLRGGKYAATSQVLLPSKDVMQGTDEHVVCKVQHPNGNKEKNVPLPVIAELPPKVSVFVPPRDGFFGNPRKSKLICQATGFSPRQIQVSWLREGKQVGSGVTTDQVQAEAKESGPTTYKVTSTLTIKESDWLSQSMFTCRVDHRGLTFQQNASSMCVPDQDTAIRVFAIPPSFASIFLTKSTKLTCLVTDLTTYDSVTISWTRQNGEAVKTHTNISESHPNATFSAVGEASICEDDWNSGERFTCTVTHTDLPSPLKQTISRPKGVALHRPDVYLLPPAREQLNLRESATITCLVTGFSPADVFVQWMQRGQPLSPEKYVTSAPMPEPQAPGRYFAHSILTVSEEEWNTGETYTCVVAHEALPNRVTERTVDKSTGKPTLYNVSLVMSDTAGTCY
light: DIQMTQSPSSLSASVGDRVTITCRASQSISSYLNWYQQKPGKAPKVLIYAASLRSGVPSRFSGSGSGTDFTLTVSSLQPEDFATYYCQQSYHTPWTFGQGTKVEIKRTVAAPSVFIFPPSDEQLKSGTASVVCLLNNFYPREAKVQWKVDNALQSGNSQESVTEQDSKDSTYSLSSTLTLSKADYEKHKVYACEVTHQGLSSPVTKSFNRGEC
notes: IgM/kappa purified from human patient serum; A J chain is not mentioned; also called B7-DC cross-linking antibody; sHIgM12 antibody

Reference: patent US20160122431A1 (MAYO FOUNDATION FOR MEDICAL EDUCATION AND RESEARCH, published 2016)
